Data taken from article PMC4377080, “Probing Bunyavirus N protein oligomerisation using mass spectrometry” (Rapid Communications in Mass Spectrometry, 2014).
Values joined by “and” are separate entries in the source; they are usually repeats but may differ in a detail not shown here. Equal values may be shown once.

Columns and labels:
[1] = target: T1, BUNV-N nucleocapsid protein (Bunyamwera virus, UniProt P16495 1-233); test: native nanoESI-MS; N:RNA 3:2, 3:3, 4:4 (3:3 and 4:4 major); mixed at 2:1; 50 mM ammonium acetate, pH 6.8 (stated for RNA-free BUNV-N); 10 uM final N protein (monomer basis); temperature not given; conditions: protein: recombinant; tags: His6-SUMO, removed
[2] = target: T2, SBV-N nucleocapsid protein (Schmallenberg virus, UniProt H2AM13 1-233); test: native nanoESI-MS; N:RNA 4:4 (major), 8:8, 10:10, 12:12; 50 mM ammonium acetate, pH 6.8 (stated for RNA-free BUNV-N); 10 uM final N protein (monomer basis); temperature not given; conditions: protein: recombinant; tags: His6-SUMO, removed; chain copies: 4
T2 sequence: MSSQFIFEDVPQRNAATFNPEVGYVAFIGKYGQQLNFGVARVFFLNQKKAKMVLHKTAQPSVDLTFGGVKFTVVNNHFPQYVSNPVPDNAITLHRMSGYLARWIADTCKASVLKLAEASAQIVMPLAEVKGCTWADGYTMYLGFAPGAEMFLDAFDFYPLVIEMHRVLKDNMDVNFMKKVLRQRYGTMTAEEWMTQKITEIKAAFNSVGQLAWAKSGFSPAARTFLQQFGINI

[3] = target: T2, SBV-N nucleocapsid protein; test: native nanoESI-MS, CID MS/MS; N:RNA 4:2, 5:2; 4:2 also in mixture with BUNV-N; 50 mM ammonium acetate, pH 6.8 (stated for RNA-free BUNV-N); 10 uM final N protein (monomer basis); temperature not given; conditions: protein: recombinant; tags: His6-SUMO, removed; chain copies: 4
[4] = target: T1, BUNV-N nucleocapsid protein; test: native nanoESI-MS, CID MS/MS; N:RNA 3:1, 4:2 (major), 5:2, 6:3; 4:2 also in mixture with SBV-N; 50 mM ammonium acetate, pH 6.8 (stated for RNA-free BUNV-N); 10 uM final N protein (monomer basis); temperature not given; conditions: protein: recombinant; tags: His6-SUMO, removed
[5] = target: the molecule itself; test: native MS; nano-ESI-MS of RNA-free N protein (10 μM monomer) incubated with synthetic 48-mer RNA
[6] = target: the molecule itself; test: native MS; nano-ESI-MS of RNA-free N protein (10 μM monomer) incubated with synthetic 12-mer RNA; 2:1 N/RNA molar ratio for BUNV-N
[7] = target: the molecule itself; test: native MS; nano-ESI-MS of RNA-free N protein (10 μM monomer) incubated with synthetic 24-mer RNA
[8] = target: the molecule itself; test: native MS; nano-ESI-MS of RNA-free N protein (10 μM monomer) incubated with synthetic 60-mer RNA
[9] = target: the molecule itself; test: native MS; nano-ESI-MS of BUNV-N bound to endogenous E. coli RNA (as purified; traces also left after the RNA-removal step); ammonium acetate buffer pH 6.8
[10] = target: T2, SBV-N nucleocapsid protein; test: native nanoESI-MS; N:RNA 4:1 and 5:1 (equal major), 6:1, 8:1; 50 mM ammonium acetate, pH 6.8 (stated for RNA-free BUNV-N); 10 uM final N protein (monomer basis); temperature not given; conditions: protein: recombinant; tags: His6-SUMO, removed; chain copies: 4
[11] = target: T1, BUNV-N nucleocapsid protein; test: native nanoESI-MS; N:RNA 6:1, low population; 50 mM ammonium acetate, pH 6.8 (stated for RNA-free BUNV-N); 10 uM final N protein (monomer basis); temperature not given; conditions: protein: recombinant; tags: His6-SUMO, removed
[12] = target: T2, SBV-N nucleocapsid protein; test: native nanoESI-MS; N:RNA 3:1, 4:1 (major), 4:2, 5:2; 50 mM ammonium acetate, pH 6.8 (stated for RNA-free BUNV-N); 10 uM final N protein (monomer basis); temperature not given; conditions: protein: recombinant; tags: His6-SUMO, removed; chain copies: 4
[13] = target: T1, BUNV-N nucleocapsid protein; test: native nanoESI-MS; N:RNA 5:1; 50 mM ammonium acetate, pH 6.8 (stated for RNA-free BUNV-N); 10 uM final N protein (monomer basis); temperature not given; conditions: protein: recombinant; tags: His6-SUMO, removed

## AGUAGUGUACUC (ssRNA) [12-mer RNA]
[1]
  binding result: binds
[2]
  binding result: binds

## AGUAGUGUACUCCACACUACAAAC (ssRNA) [24-mer RNA]
[3]
  binding result: binds
[4]
  binding result: binds

B1: Schmallenberg virus nucleocapsid (N) protein (natural protein)
chain: MSSQFIFEDVPQRNAATFNPEVGYVAFIGKYGQQLNFGVARVFFLNQKKAKMVLHKTAQPSVDLTFGGVKFTVVNNHFPQYVSNPVPDNAITLHRMSGYLARWIADTCKASVLKLAEASAQIVMPLAEVKGCTWADGYTMYLGFAPGAEMFLDAFDFYPLVIEMHRVLKDNMDVNFMKKVLRQRYGTMTAEEWMTQKITEIKAAFNSVGQLAWAKSGFSPAARTFLQQFGINI
notes: Nucleocapsid (N) protein of Schmallenberg virus (SBV); measured monomer mass 26 269 Da; also called SBV-N; SBVN; source: tag removed; high salt-treated
[5]
  stoichiometry N: 3
[6]
  stoichiometry N: 4 and 8 and 10 and 12
[7]
  stoichiometry N: 5
[8]
  stoichiometry N: 6

B2: Bunyamwera virus nucleocapsid (N) protein (natural protein)
chain: MIELEFHDVAANTSSTFDPEVAYANFKRVHTTGLSYDHIRIFYIKGREIKTSLAKRSEWEVTLNLGGWKITVYNTNFPGNRNNPVPDDGLTLHRLSGFLARYLLEKMLKVSEPEKLIIKSKIINPLAEKNGITWNDGEEVYLSFFPGSEMFLGTFRFYPLAIGIYKVQRKEMEPKYLEKTMRQRYMGLEAATWTVSKLTEVQSALTVVSSLGWKKTNVSAAARDFLAKFGINM
notes: Nucleocapsid (N) protein of Bunyamwera virus (BUNV); As purified it carries E. coli RNA (tetramer with about 44 nt); the RNA-free form is obtained by high salt treatment; also called BUNV-N; BUNVN; source: tag removed; endogenous RNA removed with high ionic strength buffers where stated
[6]
  stoichiometry N: 3
[9]
  stoichiometry N: 4
[7]
  stoichiometry N: 5 and 6

B3: 60-mer RNA (ssRNA)
RNA: AGUAGUGUACUCCACACUACAAACUUGCUAUUGUUGAAAAUCGCUGUGCUAUUAAAUCCA
[10]
  binding result: binds
[11]
  binding result: binds

## AGUAGUGUACUCCACACUACAAACUUGCUAUUGUUGAAAAUCGCUGUG (ssRNA) [48-mer RNA]
[12]
  binding result: binds
[13]
  binding result: binds
